Common to all, as to assay type: in vivo, human
The subject of test [1] is patients with type 2 diabetes mellitus (T2DM). Briefly: Proinsulin in clinical study of ACZ885 in T2DM patients on metformin. The conditions noted are these: Week 4 post-dose, versus placebo. How it is done: A multi center, randomized, double blind, placebo-controlled, dose escalation study of the safety, tolerability, pharmacokinetics and pharmacodynamics of ACZ885 administered intravenously to patients with type 2 diabetes mellitus. The aim of the study is to compare the pharmacokinetic and pharmacodynamic effects of five doses (i.v. administration) of ACZ885 with placebo in patients with type 2 diabetes mellitus (T2DM). […] OGTT was administered at Baseline, 4 and 12 wk post-dose. The subsequent cohorts were included in the evaluation of pharmacodynamic, pharmacokinetis, pharmacogenomics and pharmacogenetics. • Cohort 2 (n=90; 1:1=ACZ885:Plb): received a single dose of ACZ885 (10 mg/kg) or placebo. • Cohort 3 (n=96) received a single dose of ACZ885 0.1, 0.3, 1.5 mg/kg or placebo (1:1:1:1). • Cohort 4 (n=30; 2:1=ACZ885:P1b) received a single dose of ACZ885 (0.03 mg/kg) or placebo. The study was designed to follow the patients for 24 weeks (168 days) after the single intravenous (i.v.) administration. An analysis of covariance (ANCOVA) with treatment as the classification variable and baseline as the covariate will be used for the comparison of treatments with respect to these parameters.

Test [2] has the same test system. The test is described as follows: Glucagon (OGTT) in clinical study of ACZ885 in T2DM patients on metformin. The conditions noted are these: dose escalation, Week 4 post-dose, versus placebo. From the text: Glucagon is a hormone secreted by the alpha cells of the pancreatic islets of Langerhans. It is secreted in response to hypoglycemia and increases the blood glucose. As serum glucose levels rise in the blood, glucagon is inhibited by a negative feedback mechanism. The Millipore/LINCO Glucagon Radioimmunoassay kit utilized I^125 labeled glucagon and glucagon antiserum to determine the level of glucagon in plasma by the double antibody/PEG technique. The antibody is specific for pancreatic glucagon. A standard curve is set up with increasing concentrations of standard unlabeled antigen and from this curve the amount of antigen in unknown samples can be calculated. The method has an inter-assay precision of 7.3-13.5% CV, and an intra-assay precision of 4.0-6.8% (determined by assaying replicate assays then evaluating the coefficient of variation). Accuracy is evaluated by comparison with College of American Pathologists (CAP) Ligand. A multi center, randomized, double blind, placebo-controlled, dose escalation study of the safety, tolerability, pharmacokinetics and pharmacodynamics of ACZ885 administered intravenously to patients with type 2 diabetes mellitus. The aim of the study is to compare the pharmacokinetic and pharmacodynamic effects of five doses (i.v. administration) of ACZ885 with placebo in patients with type 2 diabetes mellitus (T2DM). […]

For test [3] the test system is unchanged. Briefly: C-peptide (OGTT) in clinical study of ACZ885 in T2DM patients on metformin. Particulars: dose escalation, Week 4 post-dose, versus placebo. From the text: In the beta cells of the pancreas, the proinsulin molecule is cleaved to form insulin and C-Peptide. C-Peptide, a polypeptide consisting of 31 amino acids, is stored in the secretory granules of the beta cells and released into circulation in equimolar amounts with insulin. The determination of C-Peptide provides an assessment of endogenous insulin secretory reserves in patients with diabetes mellitus and is considered a more reliable indicator of insulin secretion than insulin itself. The ADVIA Centaur C-Peptide assay is a two-site sandwich immunoassay using direct chemiluminescent technology, which uses constant amounts of two antibodies. The first antibody, in the Lite Reagent, is a monoclonal mouse anti-C-Peptide antibody labeled with acridinium ester. The second antibody, in the Solid Phase, is a monoclonal mouse anti-C-Peptide antibody. Streptavidin in the Solid phase is covalently coupled. A direct relationship exists between the amount of C-Peptide present in the patient sample and the amount of relative light units (RLUs) detected by the system. The method has an inter-assay precision of 1.69-1.81% CV, and an intra-assay precision of 3.7-4.1% (determined by assaying 20 replicate assays of a sample then evaluating the coefficient of variation). Accuracy is evaluated by comparison with College of American Pathologists (CAP) Ligand. […]

Entries after “also recorded” stand apart in the source; their conditions may differ.

B1: ACZ885: anti-IL1β antibody, also referred to as Canakinumab; variable domains shown in SEQ ID NO:1 (VH) and SEQ ID NO:2 (VL) (antibody, V domains shown)
VH: QVQLVESGGGVVQPGRSLRLSCAASGFTFSVYGMNWVRQAPGKGLEWVAIIWYDGDNQYYADSVKGRFTISRDNSKNTLYLQMNGLRAEDTAVYYCARDLRTGPFDYWGQGTLVTVSS
VL: EIVLTQSPDFQSVTPKEKVTITCRASQSIGSSLHWYQQKPDQSPKLLIKYASQSFSGVPSRFSGSGSGTDFTLTINSLEAEDAAAYYCHQSSSLPFTFGPGTKVDIK
modifications: homo sapiens
Take B1: the proinsulin entry in test [1] was “positive trend at Week 4 post-dose, albeit not statistically significant”. Further, in test [2], the “OGTT glucagon AUC0-4 h” value is “Positive trends consistent with dose escalation; also recorded: positive trend at Week 4 post-dose, albeit not statistically significant”. In addition, the “OGTT C-peptide AUC0-4 h” value in test [3] is given as “Positive trends consistent with dose escalation; also recorded: positive trend at Week 4 post-dose, albeit not statistically significant”.
